From patent US20240043521A1 (ARXX THERAPEUTICS, published 2024) come the findings set out here.

By Kd is commonly meant the constant that tells how readily two partners part at equilibrium. What is called koff is the rate constant with which the complex falls apart. Low values mean slow dissociation, high ones fast dissociation. As usually defined, the kon is the second-order rate constant of association. A low value points to slower complex formation.

First the molecules themselves.
T1: human FcγRIIa-H (the high-affinity H131 variant) on Jurkat reporter cells (human, UniProt P12318 34-317)
T1 sequence (looked up): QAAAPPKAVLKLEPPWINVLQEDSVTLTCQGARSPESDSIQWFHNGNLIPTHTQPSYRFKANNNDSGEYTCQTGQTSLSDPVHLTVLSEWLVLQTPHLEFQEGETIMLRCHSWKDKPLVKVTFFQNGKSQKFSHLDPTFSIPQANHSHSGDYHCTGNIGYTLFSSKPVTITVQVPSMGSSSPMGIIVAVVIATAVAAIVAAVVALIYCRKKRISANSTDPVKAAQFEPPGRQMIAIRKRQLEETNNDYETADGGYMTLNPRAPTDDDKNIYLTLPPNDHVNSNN

T2: A8 (lane under "Human S100 Proteins")
T2 construct: also called human S100A8
T2 chain: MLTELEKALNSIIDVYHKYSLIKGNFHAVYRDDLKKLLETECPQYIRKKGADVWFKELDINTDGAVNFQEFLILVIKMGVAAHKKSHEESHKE

B1: VH1_40Phe:VL3_Leu44 (antibody, V domains shown)
VH: QVQLQESGPGLVKPSQTLSLTCTVSGDSFTNDYYWNWIRQFPGKGLEWIGHIGYGGNINYNPSLKNRLSMSRDTSKNQFSLKLSSVTAADTAVYYCTRESFYDGYPFDYWGQGTLVTVSS
VL: DIQMTQSPSSLSASVGDRVTITCRASQDIRNYLNWYQQKPGKALKLLLYYTSRLHSGVPSRFSGSGSGTDYTLTISSLQPEDFATYYCQQGNSLPRTFGGGTKVEIK
notes: also called Phe40/Leu44; VH1_H40Phe VL3_L44Leu
B2: 6B12, mouse monoclonal IgG1 anti-S100A4 antibody (antibody, V domains shown)
VH: DVQLQESGPGLVKPSQSLSLTCSVTGDSFTNDYYWNWIRQFPGSKLEWMGHIGYGGNINYNPSLKNRISITRDTSKNQFFLRLTSVTTEDTATYYCTRESFYDGYPFDYWGQGTLVTVSA
VL: DIQMTQTTSSLSASLGDRVTISCRASQDIRNYLNWYQQRPGGTLKLLIYYTSRLHSGVPSRFSGSGSGTDYSLTISNLEQEDIATYFCQQGNSLPRTFGGGTKLEIK
notes: Mouse IgG1; also called 6B12 mIgG1; 6B12 IgG1
B3: AX-202, a humanized IgG4 monoclonal anti-S100A4 antibody (antibody)
heavy: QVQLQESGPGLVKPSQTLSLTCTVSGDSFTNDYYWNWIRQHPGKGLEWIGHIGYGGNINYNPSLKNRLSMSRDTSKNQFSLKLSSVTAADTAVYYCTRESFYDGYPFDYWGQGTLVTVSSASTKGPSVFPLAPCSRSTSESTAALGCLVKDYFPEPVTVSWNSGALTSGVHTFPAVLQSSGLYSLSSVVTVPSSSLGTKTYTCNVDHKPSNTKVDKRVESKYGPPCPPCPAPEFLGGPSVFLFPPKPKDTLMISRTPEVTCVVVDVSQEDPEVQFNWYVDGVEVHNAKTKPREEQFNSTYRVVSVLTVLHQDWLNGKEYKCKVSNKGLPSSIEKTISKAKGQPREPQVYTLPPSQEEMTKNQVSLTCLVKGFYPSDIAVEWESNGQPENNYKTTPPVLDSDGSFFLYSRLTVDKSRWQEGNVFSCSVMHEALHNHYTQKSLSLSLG
light: DIQMTQSPSSLSASVGDRVTITCRASQDIRNYLNWYQQKPGKALKLLLYYTSRLHSGVPSRFSGSGSGTDYTLTISSLQPEDFATYYCQQGNSLPRTFGGGTKVEIKRTVAAPSVFIFPPSDEQLKSGTASVVCLLNNFYPREAKVQWKVDNALQSGNSQESVTEQDSKDSTYSLSSTLTLSKADYEKHKVYACEVTHQGLSSPVTKSFNRGEC
B4: VH1_H40Phe VL3 (antibody, V domains shown)
VH: B1 VH
VL: B1 VL with L44P
notes: Humanized antibody; also called VH1_40Phe:VL3; Phe40
B5: VH1 VL3_L44Leu (antibody, V domains shown)
VH: B1 VH with F41H
VL: B1 VL
notes: Humanized antibody; also called VH1:VL3_Leu44; Leu44
B6: VH0 VL3 (antibody, V domains shown)
VH: B2 VH
VL: B1 VL with L44P
B7: VH0 VL0: the VH and VL regions of 6B12 comprised in a humanized IgG4 isotype framework (antibody, V domains shown)
VH: B2 VH
VL: B2 VL
B8: VH1 VL0 (antibody, V domains shown)
VH: B1 VH with F41H
VL: B2 VL
B9: VH1 VL3 (antibody, V domains shown)
VH: B1 VH with F41H
VL: B1 VL with L44P
notes: Humanized antibody
B10: VH1_H43Ser VL3 (antibody, V domains shown)
VH: B1 VH with F41H, K44S
VL: B1 VL with L44P
B11: VH1_H43Ser + H44Lys VL3_L44Leu (antibody, V domains shown)
VH: B1 VH with F41H, K44S, G45K
VL: B1 VL
B12: VH1_H43Ser + H44Lys VL3 (antibody, V domains shown)
VH: B1 VH with F41H, K44S, G45K
VL: B1 VL with L44P
B13: VH1_H43Ser VL3_L44Leu (antibody, V domains shown)
VH: B1 VH with F41H, K44S
VL: B1 VL
B14: VH1 VL3_L43Thr (antibody, V domains shown)
VH: B1 VH with F41H
VL: B1 VL with A43T, L44P
B15: VH1 VL3_L42Gly (antibody, V domains shown)
VH: B1 VH with F41H
VL: B1 VL with K42G, L44P
B16: VH1_H40Phe + H44Lys VL3 (antibody, V domains shown)
VH: B1 VH with G45K
VL: B1 VL with L44P
B17: VH1 VL3_L42Gly+L44Leu (antibody, V domains shown)
VH: B1 VH with F41H
VL: B1 VL with K42G
B18: VH1_H44Lys VL3 (antibody, V domains shown)
VH: B1 VH with F41H, G45K
VL: B1 VL with L44P

Numbering of substitutions follows the chain as printed.

T4 sequence (P26447 whole entry, one chain of several): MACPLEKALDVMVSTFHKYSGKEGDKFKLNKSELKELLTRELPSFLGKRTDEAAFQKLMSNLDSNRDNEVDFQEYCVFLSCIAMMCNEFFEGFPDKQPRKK

The target of one assay is T3, human S100A4 protein (human, UniProt P26447 1-101).
T3 construct: also called S100A4 (human)
T3 sequence (P26447 whole entry, one chain of several): as above
The assay is described as follows: Western blot. A general note: In western blotting, separated proteins are transferred to a membrane and probed.
As to B1, the binding result is reported as “binds”.

Another assay has as its target T1, human FcγRIIa-H (the high-affinity H131 …). As to the kind of experiment: cell-based or functional assay.
Turning to B2, the “FcγRIIa-H ADCP reporter; fold higher activation than AX-202 hIgG4, immune complex with S100A4 dimer” value came out at 3.23 fold and the “FcγRIIa-H ADCP reporter; fold higher activation than AX-202 hIgG4, immune complex with S100A4 multimer” value was 2.87 fold.
Consider B3, for which the “FcγRIIa-H ADCP reporter; potency to induce FcγR activation against the same antibody with a human IgG1 scaffold” value was ~3 fold lower.

Another assay addresses A6 (lane under "Human S100 Proteins") (Homo sapiens, UniProt P06703). The assay is described as follows: Western blot on human S100 proteins.
With B1, the binding result is “no binding”.
Consider B4, for which the binding result is on record as “no binding”.
As for B5, the binding result is reported as “no binding”.

In another assay the target is T2, A8 (lane under "Human S100 Proteins"). The assay is described as follows: Western blot on human S100 proteins.
As to B1, the binding result is “no binding”.
Same read-out and setting: to B4 belongs “no binding”.
Same read-out and setting: next, B5: “no binding”.

A further assay concerns the target T4, human S100A4 dimer (Homo sapiens, UniProt P26447 1-101).
T4 construct: In the SPR it was captured on an anti-His surface, so it carried a His tag; also called recombinant human S100A4 dimer
The assay is described as follows: SPR, Biacore T200, 25 C; S100A4 captured via anti-His, antibody as analyte (0.78-200 nM), 1:1 fit. How it is done: Quantitative, kinetic analysis of the interactions between 14 humanized antibodies and 2 control antibodies with the human S100A4 dimer were performed using surface plasmon resonance (SPR).
The analysis was performed using a Biacore T200 instrument, at 25° C. analysis temperature, at a flow rate of 50 μl/min for quantitative kinetic interaction analyses.
Background: SPR reads the build-up and loss of mass on a sensor chip optically.
For the molecule B2, the affinity, expressed as Kd, was 1.65 nM; the koff amounted to 0.000206 s⁻¹; the kon worked out at 124000 M⁻¹ s⁻¹.
In the same order, the values of B6 are 1.46 nM, 0.000279 s⁻¹ and 191000 M⁻¹ s⁻¹.
In the same order, the values of B7 are 0.958 nM, 0.000219 s⁻¹ and 229000 M⁻¹ s⁻¹.
B8: the equilibrium dissociation constant (Kd) was 1.15 nM, the koff came to 0.000361 s⁻¹ and the kon stood at 313000 M⁻¹ s⁻¹.
On the same counts, the results for B9 are 3.47 nM, 0.000674 s⁻¹ and 194000 M⁻¹ s⁻¹.
The molecule B10 showed a Kd of 3.21 nM, a koff of 0.000679 s⁻¹ and a kon of 211000 M⁻¹ s⁻¹.
On the same counts, the results for B11 are 2.15 nM, 0.000507 s⁻¹ and 236000 M⁻¹ s⁻¹.
Regarding B12, the dissociation constant Kd was 2.84 nM, the koff was 0.000596 s⁻¹ and the kon was 210000 M⁻¹ s⁻¹.
On the same counts, the results for B13 are 2.38 nM, 0.000512 s⁻¹ and 215000 M⁻¹ s⁻¹.
On the same counts, the results for B4 are 2.65 nM, 0.000576 s⁻¹ and 217000 M⁻¹ s⁻¹.
In the same order, the values of B14 are 4.72 nM, 0.000882 s⁻¹ and 187000 M⁻¹ s⁻¹.
Molecule B15 came in with a Kd of 3 nM, a koff of 0.00064 s⁻¹ and a kon of 213000 M⁻¹ s⁻¹.
On the same counts, the results for B5 are 2.25 nM, 0.000537 s⁻¹ and 239000 M⁻¹ s⁻¹.
In the same order, the values of B16 are 2.43 nM, 0.00056 s⁻¹ and 231000 M⁻¹ s⁻¹.
On the same counts, the results for B17 are 1.99 nM, 0.000523 s⁻¹ and 263000 M⁻¹ s⁻¹.
Turning to B18, the Kd is 2.77 nM, the koff amounted to 0.000592 s⁻¹ and the kon worked out at 213000 M⁻¹ s⁻¹.
